T1: CFP-NRAGE (full-length NRAGE) (UniProt Q9ES73 1-775)
T1 construct: NRAGE (MAGE-D1), full length; the cloning of this construct is not described; also called C-NR; source: 293T, co-transfected, in fixed cells
T1 sequence (looked up): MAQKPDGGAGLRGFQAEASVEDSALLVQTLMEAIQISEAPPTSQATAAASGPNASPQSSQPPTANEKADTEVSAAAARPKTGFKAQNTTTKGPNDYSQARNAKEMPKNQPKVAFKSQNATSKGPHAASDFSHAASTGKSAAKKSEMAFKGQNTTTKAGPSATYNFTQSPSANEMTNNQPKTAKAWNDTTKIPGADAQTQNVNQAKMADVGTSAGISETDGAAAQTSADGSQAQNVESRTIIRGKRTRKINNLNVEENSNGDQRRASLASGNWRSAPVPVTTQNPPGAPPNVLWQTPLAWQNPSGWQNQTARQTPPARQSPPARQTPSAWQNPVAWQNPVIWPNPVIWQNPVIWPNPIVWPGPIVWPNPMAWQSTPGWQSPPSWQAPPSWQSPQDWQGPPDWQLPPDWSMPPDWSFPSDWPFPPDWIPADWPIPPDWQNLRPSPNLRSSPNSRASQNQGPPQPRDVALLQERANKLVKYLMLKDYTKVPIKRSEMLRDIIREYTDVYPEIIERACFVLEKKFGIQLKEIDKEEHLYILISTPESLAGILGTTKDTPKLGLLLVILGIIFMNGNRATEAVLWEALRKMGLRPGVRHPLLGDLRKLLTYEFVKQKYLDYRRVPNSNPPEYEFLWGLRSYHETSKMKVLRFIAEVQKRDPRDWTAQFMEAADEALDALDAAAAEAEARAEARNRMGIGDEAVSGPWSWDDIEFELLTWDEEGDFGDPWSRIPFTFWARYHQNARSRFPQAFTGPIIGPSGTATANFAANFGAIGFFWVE

T2: YFP-NRAGE (full-length NRAGE) (UniProt Q9ES73 1-775)
T2 construct: NRAGE (MAGE-D1), full length; the cloning of this construct is not described; also called Y-NR; source: 293T, co-transfected, in fixed cells
T2 sequence (looked up): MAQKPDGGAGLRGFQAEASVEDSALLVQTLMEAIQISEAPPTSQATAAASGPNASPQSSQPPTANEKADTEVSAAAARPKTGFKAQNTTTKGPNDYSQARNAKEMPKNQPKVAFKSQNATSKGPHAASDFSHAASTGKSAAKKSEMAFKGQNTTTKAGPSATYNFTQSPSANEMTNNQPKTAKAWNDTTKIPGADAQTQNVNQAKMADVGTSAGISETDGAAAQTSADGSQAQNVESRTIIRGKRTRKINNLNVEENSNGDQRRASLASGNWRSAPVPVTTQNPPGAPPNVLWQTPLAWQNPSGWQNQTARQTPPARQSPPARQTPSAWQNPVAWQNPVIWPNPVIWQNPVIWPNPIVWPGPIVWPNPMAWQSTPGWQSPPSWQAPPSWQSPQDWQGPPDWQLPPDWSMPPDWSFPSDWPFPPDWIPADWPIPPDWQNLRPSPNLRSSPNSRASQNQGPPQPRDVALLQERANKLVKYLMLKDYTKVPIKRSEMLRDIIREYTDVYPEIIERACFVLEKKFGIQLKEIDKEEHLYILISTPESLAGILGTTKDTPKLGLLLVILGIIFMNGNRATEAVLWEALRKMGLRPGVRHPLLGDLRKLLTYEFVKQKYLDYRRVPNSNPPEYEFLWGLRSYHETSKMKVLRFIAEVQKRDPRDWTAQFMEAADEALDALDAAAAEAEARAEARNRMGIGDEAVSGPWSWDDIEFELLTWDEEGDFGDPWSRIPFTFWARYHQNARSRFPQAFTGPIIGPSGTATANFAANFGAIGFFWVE


Assays:
Assay in all cases: FRET or BRET; donor dequenching ECFP:EYFP FRET, confocal; co-transfected 293T cells, fixed with 4% paraformaldehyde 48 h after transfection; no BMP ligand
Details in all cases: partners not purified
[1] = target: T1, CFP-NRAGE (full-length NRAGE)
[2] = target: T3, ECFP-XIAP (UniProt Q60989 1-496)
T3 construct: also called C-X; source: 293T, co-transfected, in fixed cells; not shown: ECFP, N-terminal, kept

[3] = target: T4, EYFP-XIAP (UniProt Q60989 1-496)
T4 construct: also called Y-X; source: 293T, co-transfected, in fixed cells; not shown: EYFP, N-terminal, kept

[4] = target: T2, YFP-NRAGE (full-length NRAGE)

T3 sequence (Q60989 whole entry): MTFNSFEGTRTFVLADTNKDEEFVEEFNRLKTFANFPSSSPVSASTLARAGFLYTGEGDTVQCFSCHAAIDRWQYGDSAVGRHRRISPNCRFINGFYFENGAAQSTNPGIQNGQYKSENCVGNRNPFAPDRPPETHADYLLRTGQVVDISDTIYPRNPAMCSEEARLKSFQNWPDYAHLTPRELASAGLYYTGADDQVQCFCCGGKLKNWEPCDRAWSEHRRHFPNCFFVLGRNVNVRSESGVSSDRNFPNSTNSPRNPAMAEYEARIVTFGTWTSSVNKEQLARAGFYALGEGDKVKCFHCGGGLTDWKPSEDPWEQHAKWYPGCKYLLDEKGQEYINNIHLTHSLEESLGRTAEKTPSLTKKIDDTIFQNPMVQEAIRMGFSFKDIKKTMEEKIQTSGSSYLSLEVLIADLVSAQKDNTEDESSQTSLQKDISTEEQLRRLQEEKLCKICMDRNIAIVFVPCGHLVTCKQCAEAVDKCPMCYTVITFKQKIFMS
T4 sequence (Q60989 whole entry): as above

Row | average peak energy transfer efficiency (FRET) [1] [%] | average peak energy transfer efficiency (FRET) [2] [%] | average peak energy transfer efficiency (FRET) [3] [%] | average peak energy transfer efficiency (FRET) [4] [%] | Binder
1 | 0.36 | 0.34 |  |  | PPAWQTPPAWQTPPAWQTPPAWQT (four repeats of the final consensus hexapeptide PPAWQT of the NRAGE repeat domain; also called pep-Y; NRAGE peptide DNA-YFP; source: 293T, co-transfected, in fixed cells; not shown: EYFP, C-terminal, kept) [NRAGE peptide-YFP (NRAGE peptide DNA in pEYFP-N1)]
2 |  |  | 0.46 | 0.41 | PPAWQTPPAWQTPPAWQTPPAWQT (four repeats of the final consensus hexapeptide PPAWQT of the NRAGE repeat domain; also called pep-C; NRAGE peptide DNA-CFP; source: 293T, co-transfected, in fixed cells; not shown: ECFP, C-terminal, kept) [NRAGE peptide-CFP (NRAGE peptide DNA in pECFP-N1)]

From article PMC3138748, “A Small Peptide Modeled after the NRAGE Repeat Domain Inhibits XIAP-TAB1-TAK1 Signaling for NF-κB Activation and Apoptosis in P19 Cells” (PLoS ONE, 2011)
